Key:
[1] = biological target: human CD3 (hCD3) naturally expressed on Jurkat cells (human) (UniProt P07766); test: cell-based or functional assay
[2] = biological target: human CD3 (hCD3) naturally expressed on Jurkat cells (human) (UniProt P07766); test: FACS on Jurkat cells
[3] = biological target: human Claudin 18.2 (hCLDN18.2) on stably-transfected HEK293 cells (human) (UniProt P56856); test: FACS on HEK293-hCLDN18.2 cells
[4] = biological target: Cynomolgus macaques Claudin 18 (cynoCLDN18) on stably-transfected HEK293 cells (Cynomolgus macaques); test: FACS on HEK293-cynoCLDN18 cells
[5] = biological target: murine Claudin 18.2 (mCLDN18.2) on stably-transfected HEK293 cells (murine) (UniProt P56857); test: FACS on HEK293-mCLDN18.2 cells

Chain of human CD3 (hCD3) naturally expressed on Jurkat cells (human) (P07766 23-207): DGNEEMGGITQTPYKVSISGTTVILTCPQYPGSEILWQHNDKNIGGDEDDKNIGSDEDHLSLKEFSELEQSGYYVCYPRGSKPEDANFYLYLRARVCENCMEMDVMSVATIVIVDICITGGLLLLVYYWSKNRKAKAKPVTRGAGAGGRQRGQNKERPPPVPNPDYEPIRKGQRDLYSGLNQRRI
Chain of human Claudin 18.2 (hCLDN18.2) on stably-transfected HEK293 cells (human) (P56856 other isoform, or with tags, fused parts or gaps limits assumed): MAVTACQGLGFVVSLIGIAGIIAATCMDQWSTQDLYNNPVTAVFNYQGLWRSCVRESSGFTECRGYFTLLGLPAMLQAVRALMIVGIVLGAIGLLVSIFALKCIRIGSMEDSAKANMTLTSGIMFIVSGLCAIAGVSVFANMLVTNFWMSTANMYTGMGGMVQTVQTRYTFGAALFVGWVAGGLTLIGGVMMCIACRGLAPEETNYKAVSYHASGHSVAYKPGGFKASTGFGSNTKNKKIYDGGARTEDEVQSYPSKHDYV

- Jurkat-NFAT luciferase reporter, Fluorescence value (Max) [1]: 0
- Top mean fluorescence intensity (Top MFI) [2]: 110 MFI
- Top mean fluorescence intensity (Top MFI) [3]: 359 MFI
- MFI (Max) [4]: 136 MFI
- MFI (Max) [5]: 75 MFI
Substance: Negative-IgG1AA (antibody)

Reference: US20240010748A1
